{"source": "patent US12186373B2", "about": "“Compositions in the form of an injectable aqueous solution comprising amylin, an amylin agonist receptor or an amylin analogue and a co-polyamino acid” (ADOCIA, priority 2017, dated 2025)", "origin": "cited, not measured here", "details": "acidic pH", "data": [{"substance": "amylin: peptide of 37 amino acids which is stored and co-secreted with insulin (KCNTATCATQRLANFLVHSSNNFGAILSSTNVGSNTY; Islet amyloid polypeptide; UniProt P10997 34-70, looked up)", "values": [{"measurement": "time for which amylin is stable", "result": "about fifteen minutes"}]}]}
